From patent US20260258394A1, “PLANT ENZYMES WITH IMPROVED ACTIVITY” (MAX-PLANCK-GESELLSCHAFT ZUR FÖRDERUNG DER WISSENSCHAFTEN …, priority 2023, published 2026)
Changes are numbered by the printed parent chain. Names and notes keep the numbering of the source.

What was measured:
[1] = system: Glycolyl-CoA Carboxylase GCC M5 (Methylorubrum extorquens propionyl-CoA carboxylase variant L100S, Y143H, D407I, I450V, W502R; β-subunit SEQ ID NO: 1 …); details: cited from earlier work
[2] = target: T1, Glycolyl-CoA Carboxylase GCC M5 variant G20R (Methylorubrum extorquens propionyl-CoA carboxylase variant G20R, L100S, Y143H, D407I, I450V, W502R); β-subunit SEQ (Methylorubrum extorquens, UniProt C5AP75, D407I/G20R/I450V/L100S/W502R/Y143H); experiment: Kinetic characterization of GCC M5 G20R (Vmax, kcat, App. KM) using LC-MS assays; assay type: biochemical
T1 construct: overexpressed in E. coli BL21-birA with M. extorquens biotin ligase
T1 sequence (C5AP75 1-510 G20R/L100S/Y143H/D407I/I450V/W502R): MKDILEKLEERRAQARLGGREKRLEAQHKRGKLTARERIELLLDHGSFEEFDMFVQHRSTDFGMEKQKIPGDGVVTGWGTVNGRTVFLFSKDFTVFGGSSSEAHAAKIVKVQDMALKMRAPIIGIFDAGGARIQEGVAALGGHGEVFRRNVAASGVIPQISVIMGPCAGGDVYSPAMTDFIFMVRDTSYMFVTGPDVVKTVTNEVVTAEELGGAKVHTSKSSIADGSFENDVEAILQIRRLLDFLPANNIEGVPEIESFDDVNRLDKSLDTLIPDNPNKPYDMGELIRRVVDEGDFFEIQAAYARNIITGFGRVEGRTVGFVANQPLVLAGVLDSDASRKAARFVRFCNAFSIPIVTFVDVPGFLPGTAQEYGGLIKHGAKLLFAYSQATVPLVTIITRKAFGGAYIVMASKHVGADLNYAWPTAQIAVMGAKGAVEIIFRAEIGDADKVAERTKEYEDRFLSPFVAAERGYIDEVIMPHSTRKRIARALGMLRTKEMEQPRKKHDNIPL
T1 sequence (C5AWU5 1-667 partner): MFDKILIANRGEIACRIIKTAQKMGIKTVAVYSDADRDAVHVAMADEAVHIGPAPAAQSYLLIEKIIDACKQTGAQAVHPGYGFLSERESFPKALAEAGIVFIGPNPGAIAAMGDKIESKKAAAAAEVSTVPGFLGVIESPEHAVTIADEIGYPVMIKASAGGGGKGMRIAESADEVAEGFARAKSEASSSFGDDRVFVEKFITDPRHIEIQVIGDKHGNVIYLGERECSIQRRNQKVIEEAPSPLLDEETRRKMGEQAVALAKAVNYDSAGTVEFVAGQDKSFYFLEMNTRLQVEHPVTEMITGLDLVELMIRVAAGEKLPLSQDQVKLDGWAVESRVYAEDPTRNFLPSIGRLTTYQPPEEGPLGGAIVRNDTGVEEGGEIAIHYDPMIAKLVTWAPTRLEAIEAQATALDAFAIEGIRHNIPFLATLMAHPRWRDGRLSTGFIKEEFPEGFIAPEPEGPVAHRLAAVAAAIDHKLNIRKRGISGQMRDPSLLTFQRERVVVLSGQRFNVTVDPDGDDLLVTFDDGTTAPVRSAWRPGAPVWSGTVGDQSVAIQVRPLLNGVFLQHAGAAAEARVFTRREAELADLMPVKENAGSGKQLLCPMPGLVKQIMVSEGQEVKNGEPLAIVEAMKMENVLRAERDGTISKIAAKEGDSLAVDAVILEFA
Description: The carboxylation activity can be measured as catalytic rate of carboxylation of glycolyl-CoA (conversion of glycolyl-CoA into tartronyl-CoA) (Scheffen, loc. cit.). Catalytic rate (kcat) is here defined as the maximum formation rate of tartronyl-CoA out of glycolyl-CoA and HCO3^−. It describes how many mol of the substrate are converted per time and per mol of enzyme. It can only be approximated as it requires 100% substrate saturation of the active sites. Therefore, turnover rates at different initial substrate concentrations can be measured to compute the catalytic rate with the Michaelis-Menten equation.

[3] = target: T2, GCC M5_G20R (M. extorquens) β-subunit G20R, L100S, Y143H, D407I, I450V, W502R mutations
T2 chain: T1 sequence (C5AP75 1-510 G20R/L100S/Y143H/D407I/I450V/W502R)

[4] = substrate: CC(=O)SCCNC(=O)CCNC(=O)[C@H](O)C(C)(C)COP(=O)(O)OP(=O)(O)OC[C@H]1O[C@@H](n2cnc3c(N)ncnc32)[C@H](O)[C@@H]1OP(=O)(O)O; experiment: Kinetic characterization of GCC M5 G20R (Vmax, kcat, App. KM) using LC-MS assays; assay type: biochemical, Methylorubrum extorquens; details: other: G20R; means±s.d., n=18, nonlinear regression
Description: (§1) The data represent means±s.d., as determined from n=18 independent measurements using nonlinear regression.

[5] = substrate: CC(C)(COP(=O)(O)OP(=O)(O)OC[C@H]1O[C@@H](n2cnc3c(N)ncnc32)[C@H](O)[C@@H]1OP(=O)(O)O)[C@@H](O)C(=O)NCCC(=O)NCCSC(=O)CO; experiment: as above; assay type: biochemical, Methylorubrum extorquens; details: other: G20R; means±s.d., n=18, nonlinear regression
Description: as §1

[6] = substrate: CC(=O)SCCNC(=O)CCNC(=O)[C@H](O)C(C)(C)COP(=O)(O)OP(=O)(O)OC[C@H]1O[C@@H](n2cnc3c(N)ncnc32)[C@H](O)[C@@H]1OP(=O)(O)O; experiment: Kinetic characterization of GCC M5 S100N (Vmax, kcat, App. KM) using LC-MS assays; assay type: biochemical, Methylorubrum extorquens; details: other: S100N; means±s.d., n=18, nonlinear regression
Description: as §1

[7] = substrate: CC(C)(COP(=O)(O)OP(=O)(O)OC[C@H]1O[C@@H](n2cnc3c(N)ncnc32)[C@H](O)[C@@H]1OP(=O)(O)O)[C@@H](O)C(=O)NCCC(=O)NCCSC(=O)CO; experiment: as above; assay type: biochemical, Methylorubrum extorquens; details: other: S100N; means±s.d., n=18, nonlinear regression
Description: as §1

[8] = means±s.d., reference Scheffen loc. cit.

Molecule: CC(C)(COP(=O)(O)OP(=O)(O)OC[C@H]1O[C@@H](n2cnc3c(N)ncnc32)[C@H](O)[C@@H]1OP(=O)(O)O)[C@@H](O)C(=O)NCCC(=O)NCCSC(=O)CO [Glycolyl-CoA, glycolyl-CoA]
- catalytic rate of carboxylation of glycolyl-CoA ([1]; Scheffen, Nat. Catal. 4, 105-115, 2021): 5.6 ± 0.3 s⁻¹
- Km ([1]; means±s.d., reference Scheffen loc. cit., read-out: App. KM): 150 ± 30 µM
- Vmax [1, 8]: 2590 ± 130 nmol/min/mg
- kcat [1, 8]: 5.6 ± 0.3 s⁻¹
- kcat/KM ([1]; reference Scheffen loc. cit.): 36300 M⁻¹ s⁻¹
- Vmax, fold higher than GCC M5 ([2]; G20R versus GCC M5): 1.8 -fold
- apparent KM value for glycolyl-CoA (change versus GCC M5) ([2]; G20R versus GCC M5, result in words): slightly increased
- kcat ([2]; G20R, unit not given): 9.8±0.2

B1: PCC WT (M. extorquens) α-subunit (protein)
chain: T1 sequence (C5AWU5 1-667 partner)
- Specific activity (nmol min^-1 mg^-1) (nmol min^-1 mg^-1) [3]: 2600
- Vmax [nmol min^-1 mg^-1], glycolyl-CoA (nmol min^-1 mg^-1) [3]: 4520
- kcat [s^-1], glycolyl-CoA [3]: 9.8 s⁻¹

B2: Glycolyl-CoA Carboxylase GCC M5 variant G20R (Methylorubrum extorquens propionyl-CoA carboxylase variant G20R, L100S, Y143H, D407I, I450V, W502R; β-subunit SEQ … (protein)
chain: T1 sequence (C5AP75 1-510 G20R/L100S/Y143H/D407I/I450V/W502R)
notes: overexpressed in E. coli BL21-birA with M. extorquens biotin ligase
- Km [4]: 380 ± 100 µM
- Vmax [4]: 2.25 µmol/min/mg
- kcat [4]: 4.9 ± 0.4 s⁻¹
- kcat/Km [4]: 13000 M⁻¹ s⁻¹
- Km [5]: 270 ± 20 µM
- Vmax [5]: 4.52 µmol/min/mg
- kcat [5]: 9.8 ± 0.2 s⁻¹
- kcat/Km [5]: 36400 M⁻¹ s⁻¹

B3: Glycolyl-CoA Carboxylase GCC M5 variant S100N (= L100N; Methylorubrum extorquens propionyl-CoA carboxylase variant L100N, Y143H, D407I, I450V, W502R; β-subunit … (protein)
chain: T1 sequence (C5AP75 1-510 G20R/L100S/Y143H/D407I/I450V/W502R) with R20G, S100N
notes: as for B2
- Km [6]: 630 ± 100 µM
- Vmax [6]: 0.174 µmol/min/mg
- kcat [6]: 0.38 ± 0.03 s⁻¹
- kcat/Km [6]: 596 M⁻¹ s⁻¹
- Km [7]: 320 ± 50 µM
- Vmax [7]: 0.79 µmol/min/mg
- kcat [7]: 1.7 ± 0.1 s⁻¹
- kcat/Km [7]: 5360 M⁻¹ s⁻¹
